Source: publication PMC6398391 (The FEBS journal, 2018)

Biological target: c-MYC:MAX bHLHZip heterodimer (MYC 352-437, MAX 22-102) (human, UniProt P01106-1 352-437; P61244 22-102)
Experiment: NMR titration; unlabeled MYC:MAX dimer titrated into 15N-labeled INI1 RPT1 (147 uM); 1H,15N HSQC; fast exchange; shifts fitted to a single-site binding curve; 25 °C
Details: both partners purified

Sequence of c-MYC:MAX bHLHZip heterodimer (MYC 352-437, MAX 22-102) (P01106 367-452, chain 1 of 2): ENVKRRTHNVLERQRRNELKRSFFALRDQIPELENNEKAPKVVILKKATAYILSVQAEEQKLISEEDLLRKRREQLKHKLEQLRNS
Sequence of c-MYC:MAX bHLHZip heterodimer (MYC 352-437, MAX 22-102) (P61244 22-102, chain 2 of 2): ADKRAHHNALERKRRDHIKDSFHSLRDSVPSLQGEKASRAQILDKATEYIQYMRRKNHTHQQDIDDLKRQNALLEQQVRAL

B1: INI1/hSNF5 RPT1 (residues 184-258) (domain or fragment, human, UniProt Q12824 184-258, looked up)
chain: EVLVPIRLDMEIDGQKLRDAFTWNMNEKLMTPEMFSEILCDDLDLNPLTFVPAIASAIRQQIESYPTDSILEDQS
Binder B1 has a Kd of 44 ± 6 µM.
